Measurements reported in paper PMC9786777, “Phosphorylation of Thr9 Affects the Folding Landscape of the N-Terminal Segment of Human AGT Enhancing Protein Aggregation of Disease-Causing Mutants” (Molecules, 2022).
Residue numbers refer to the chain shown, from its start. Names and notes keep the numbering of the source. Values belong to the molecule of their own block, whether it stands above or below them.

Experiments:
[1] = target: alanine:glyoxylate aminotransferase (AGT) NTT, 1-21 (UniProt P21549); assay: NMR translational diffusion (DOSY), self-association; conditions: sites T9
[2] = target: the molecule itself; assay: dynamic light scattering; holo-AGT as purified, 10 µM (in subunit), Na-HEPES 20 mM NaCl 200 mM pH 7.4, 25 °C; hydrodynamic radius compared with the dimer of the crystal structure

other: hydrodynamic radius ([1]; reference: NTT-AGT P11L peptide): none in both; reference 12 ± 2
Molecule: alanine:glyoxylate aminotransferase (AGT) NTT, 1-21 (from UniProt P21549) NTT-AGT T9E-P11L peptide

other: hydrodynamic radius ([1]; reference: NTT-AGT WT peptide): none in both; reference 12 ± 2
Molecule: alanine:glyoxylate aminotransferase (AGT) NTT, 1-21 (from UniProt P21549) NTT-AGT T9E peptide

B1: alanine:glyoxylate aminotransferase (AGT) WT, holo-protein (enzyme, human, UniProt P21549 1-392, looked up)
chain: MASHKLLVTPPKALLKPLSIPNQLLLGPGPSNLPPRIMAAGGLQMIGSMSKDMYQIMDEIKEGIQYVFQTRNPLTLVISGSGHCALEAALVNVLEPGDSFLVGANGIWGQRAVDIGERIGARVHPMTKDPGGHYTLQEVEEGLAQHKPVLLFLTHGESSTGVLQPLDGFGELCHRYKCLLLVDSVASLGGTPLYMDRQGIDILYSGSQKALNAPPGTSLISFSDKAKKKMYSRKTKPFSFYLDIKWLANFWGCDDQPRMYHHTIPVISLYSLRESLALIAEQGLENSWRQHREAAAYLHGRLQALGLQLFVKDPALRLPTVTTVAVPAGYDWRDIVSYVIDHFDIEIMGGLGPSTGKVLRIGLLGCNATRENVDRVTEALRAALQHCPKKKL
modifications: PLP covalently bound to K209 (holo-protein)
notes: alanine:glyoxylate aminotransferase (AGT), human, 392 residues; also called holo-AGT
binding result [2]: binds

B2: AGT WT with the T9A mutation, holo-protein (enzyme, human, UniProt P21549 1-392, looked up)
chain: B1 chain with T9A
modifications: PLP covalently bound to K209 (holo-protein)
notes: alanine:glyoxylate aminotransferase (AGT), human, 392 residues, control mutation T9A; also called T9A (WT background)
binding result [2]: binds

B3: AGT WT with the T9E mutation, holo-protein (enzyme, human, UniProt P21549 1-392, looked up)
chain: B1 chain with T9E
modifications: PLP covalently bound to K209 (holo-protein)
notes: alanine:glyoxylate aminotransferase (AGT), human, 392 residues, phosphomimetic T9E; also called T9E (WT background)
binding result [2]: binds
